Assay results reported in US20120135912A1 (PERSEID THERAPEUTICS, published 2012).
Positions count from the first letter of the chain named. Values belong to the binder of their own block, whether it stands above or below them.

Tests used:
[1] = target: T1, human VLA4 (integrin alpha4beta1) on the surface of U937 cells (human, UniProt P13612 34-1032; P05556 21-798); experiment: static cell adhesion assay: calcein-labelled U937 cells on wells coated with 7D-VCAM-1, buffer with 1 mM MnCl2 (Example 13)
T1 construct: whole, on cells; Endogenous VLA4 of U937 cells; assay buffer held 1 mM each of CaCl2, MgCl2 and MnCl2; also called cell-surface human VLA4
T1 sequence (P13612 34-1032, chain 1 of 2): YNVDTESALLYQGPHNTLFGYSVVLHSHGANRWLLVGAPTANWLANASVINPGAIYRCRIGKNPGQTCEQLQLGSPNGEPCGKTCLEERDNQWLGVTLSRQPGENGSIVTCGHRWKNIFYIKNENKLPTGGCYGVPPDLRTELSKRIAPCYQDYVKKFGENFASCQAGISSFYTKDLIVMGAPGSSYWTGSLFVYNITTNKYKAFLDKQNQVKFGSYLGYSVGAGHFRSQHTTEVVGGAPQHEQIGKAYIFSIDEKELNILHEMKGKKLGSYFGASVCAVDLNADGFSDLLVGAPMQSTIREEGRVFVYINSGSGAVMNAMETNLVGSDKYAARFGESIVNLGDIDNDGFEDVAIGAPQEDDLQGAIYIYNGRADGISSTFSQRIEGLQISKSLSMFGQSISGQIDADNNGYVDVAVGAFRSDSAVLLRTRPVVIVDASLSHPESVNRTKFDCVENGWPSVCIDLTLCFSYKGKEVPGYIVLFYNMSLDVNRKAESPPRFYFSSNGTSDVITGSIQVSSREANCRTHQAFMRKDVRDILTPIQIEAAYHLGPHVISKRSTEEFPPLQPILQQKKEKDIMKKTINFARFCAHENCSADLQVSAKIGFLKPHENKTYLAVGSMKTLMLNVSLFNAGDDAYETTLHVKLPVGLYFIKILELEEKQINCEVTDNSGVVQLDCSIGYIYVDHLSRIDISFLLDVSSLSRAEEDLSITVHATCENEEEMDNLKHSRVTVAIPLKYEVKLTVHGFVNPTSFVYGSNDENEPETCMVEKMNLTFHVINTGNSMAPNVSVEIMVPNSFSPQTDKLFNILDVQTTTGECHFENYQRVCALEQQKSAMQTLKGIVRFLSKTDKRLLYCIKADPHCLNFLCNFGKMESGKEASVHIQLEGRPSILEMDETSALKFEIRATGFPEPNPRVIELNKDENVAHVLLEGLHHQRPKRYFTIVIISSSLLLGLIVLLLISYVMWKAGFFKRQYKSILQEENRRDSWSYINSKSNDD
T1 sequence (P05556 21-798, chain 2 of 2): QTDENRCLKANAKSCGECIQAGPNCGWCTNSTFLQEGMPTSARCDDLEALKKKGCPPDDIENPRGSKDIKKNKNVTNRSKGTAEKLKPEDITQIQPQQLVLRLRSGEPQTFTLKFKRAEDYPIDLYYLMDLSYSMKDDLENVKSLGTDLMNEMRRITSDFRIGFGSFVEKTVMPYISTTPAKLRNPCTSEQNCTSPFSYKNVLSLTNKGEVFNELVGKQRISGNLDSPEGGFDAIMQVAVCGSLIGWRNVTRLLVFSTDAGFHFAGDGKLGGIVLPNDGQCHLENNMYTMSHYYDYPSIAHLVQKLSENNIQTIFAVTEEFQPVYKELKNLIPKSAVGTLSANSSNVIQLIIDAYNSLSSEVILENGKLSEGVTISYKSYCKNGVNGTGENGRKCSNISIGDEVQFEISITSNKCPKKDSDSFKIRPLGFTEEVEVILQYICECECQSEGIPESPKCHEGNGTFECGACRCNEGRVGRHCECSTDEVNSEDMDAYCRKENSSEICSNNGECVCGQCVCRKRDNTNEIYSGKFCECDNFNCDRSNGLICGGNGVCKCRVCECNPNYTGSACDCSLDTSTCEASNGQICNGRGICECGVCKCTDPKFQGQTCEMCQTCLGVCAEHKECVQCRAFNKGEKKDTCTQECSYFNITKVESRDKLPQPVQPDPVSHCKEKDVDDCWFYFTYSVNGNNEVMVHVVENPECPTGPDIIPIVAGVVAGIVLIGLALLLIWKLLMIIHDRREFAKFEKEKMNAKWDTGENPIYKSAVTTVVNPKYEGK
Experimental: Prior to assaying, the U937 cells were re-suspended in labeling buffer (RPMI 1640 culture media without phenol red, 10% FBS; Invitrogen), then labeled with 0.5 μg/ml Calcein-AM at 37° C. for 30 minutes on a rotator. Subsequently, the cells were washed three times with labeling buffer then resuspended at 5×10^6 cells/ml in assay buffer (HEPES CaMgMn buffer: 50 mM HEPES, 150 mM NaCl, 1 mM CaCl₂, 1 mM MgCl₂, 1 mM MnCl2 pH 7.4).
The test compounds (i.e., the 2D-VCAM-1 variant polypeptides) were diluted in dilution buffer and added to VCAM-1-coated plates. […] Plates were spun down at 280×g for 5 minutes with assay buffer decanted by inversion before measuring fluorescence intensity (excitation=485 nm, emission=530 nm) with LJL Analyst HT 96.384 (Molecular Devices, Sunnyvale, Calif.).
FIG. 5 is a graph showing the cell adhesion index for anti-VLA4-antibody (used as a positive control for maximal inhibition of cell adherence), dilution buffer alone (“no treatment”, a control to show maximal cell adherence to the immobilized VCAM-1), 2D-VCAM-1 valiant Clone 46 (SEQ ID NO:12), Q38L-2D-VCAM-1 polypeptide (SEQ ID NO:10), and human 2D-VCAM-1 (SEQ ID NO:2). The cell adhesion index was calculated as (fluorescence intensity, VCAM-coated well)/(fluorescence intensity, non-CAM-1-coated well). […]

[2] = target: T2, human LPAM-1-Fc (alpha4-Fc/beta7-Fc heterodimer) (human); experiment: SPR (BIACORE) as in Example 12, polypeptide purified from E. coli as analyte on captured LPAM-1-Fc; KD drawn as bars (Example 20)
T2 construct: Soluble heterodimer from CHO cells, Protein A purified
T2 sequence (chain, as listed by the source limits assumed, chain 1 of 2): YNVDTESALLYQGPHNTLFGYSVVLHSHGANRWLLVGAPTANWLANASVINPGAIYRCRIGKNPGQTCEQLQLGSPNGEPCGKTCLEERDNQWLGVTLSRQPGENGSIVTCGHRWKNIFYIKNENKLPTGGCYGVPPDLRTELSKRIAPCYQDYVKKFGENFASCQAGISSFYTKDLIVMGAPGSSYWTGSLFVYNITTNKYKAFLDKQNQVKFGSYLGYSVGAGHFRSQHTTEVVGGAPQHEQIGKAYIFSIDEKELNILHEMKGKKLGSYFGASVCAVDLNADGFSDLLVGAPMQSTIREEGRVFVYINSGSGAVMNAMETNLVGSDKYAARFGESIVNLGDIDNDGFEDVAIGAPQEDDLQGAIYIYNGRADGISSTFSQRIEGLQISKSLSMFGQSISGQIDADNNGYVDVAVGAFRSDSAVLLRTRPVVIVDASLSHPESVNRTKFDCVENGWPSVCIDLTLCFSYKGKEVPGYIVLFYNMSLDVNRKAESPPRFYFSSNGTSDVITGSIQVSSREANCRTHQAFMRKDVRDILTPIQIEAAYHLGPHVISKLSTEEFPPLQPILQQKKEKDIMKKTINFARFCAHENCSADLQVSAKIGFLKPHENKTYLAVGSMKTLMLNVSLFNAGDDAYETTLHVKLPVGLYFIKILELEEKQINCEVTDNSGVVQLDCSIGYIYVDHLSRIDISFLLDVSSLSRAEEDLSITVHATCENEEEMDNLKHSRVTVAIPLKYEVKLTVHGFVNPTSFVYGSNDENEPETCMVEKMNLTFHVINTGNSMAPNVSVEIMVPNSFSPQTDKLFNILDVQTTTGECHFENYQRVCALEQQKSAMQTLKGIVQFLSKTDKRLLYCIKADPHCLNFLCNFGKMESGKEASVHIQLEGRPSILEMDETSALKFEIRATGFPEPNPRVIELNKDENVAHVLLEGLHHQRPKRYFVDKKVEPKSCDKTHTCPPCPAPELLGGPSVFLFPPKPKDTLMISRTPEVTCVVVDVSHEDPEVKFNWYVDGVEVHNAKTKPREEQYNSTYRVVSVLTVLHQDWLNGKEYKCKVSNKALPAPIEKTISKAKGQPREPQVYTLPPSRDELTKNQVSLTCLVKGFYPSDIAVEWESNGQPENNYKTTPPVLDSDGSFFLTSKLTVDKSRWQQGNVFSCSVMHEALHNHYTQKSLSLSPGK
T2 sequence (chain, as listed by the source limits assumed, chain 2 of 2): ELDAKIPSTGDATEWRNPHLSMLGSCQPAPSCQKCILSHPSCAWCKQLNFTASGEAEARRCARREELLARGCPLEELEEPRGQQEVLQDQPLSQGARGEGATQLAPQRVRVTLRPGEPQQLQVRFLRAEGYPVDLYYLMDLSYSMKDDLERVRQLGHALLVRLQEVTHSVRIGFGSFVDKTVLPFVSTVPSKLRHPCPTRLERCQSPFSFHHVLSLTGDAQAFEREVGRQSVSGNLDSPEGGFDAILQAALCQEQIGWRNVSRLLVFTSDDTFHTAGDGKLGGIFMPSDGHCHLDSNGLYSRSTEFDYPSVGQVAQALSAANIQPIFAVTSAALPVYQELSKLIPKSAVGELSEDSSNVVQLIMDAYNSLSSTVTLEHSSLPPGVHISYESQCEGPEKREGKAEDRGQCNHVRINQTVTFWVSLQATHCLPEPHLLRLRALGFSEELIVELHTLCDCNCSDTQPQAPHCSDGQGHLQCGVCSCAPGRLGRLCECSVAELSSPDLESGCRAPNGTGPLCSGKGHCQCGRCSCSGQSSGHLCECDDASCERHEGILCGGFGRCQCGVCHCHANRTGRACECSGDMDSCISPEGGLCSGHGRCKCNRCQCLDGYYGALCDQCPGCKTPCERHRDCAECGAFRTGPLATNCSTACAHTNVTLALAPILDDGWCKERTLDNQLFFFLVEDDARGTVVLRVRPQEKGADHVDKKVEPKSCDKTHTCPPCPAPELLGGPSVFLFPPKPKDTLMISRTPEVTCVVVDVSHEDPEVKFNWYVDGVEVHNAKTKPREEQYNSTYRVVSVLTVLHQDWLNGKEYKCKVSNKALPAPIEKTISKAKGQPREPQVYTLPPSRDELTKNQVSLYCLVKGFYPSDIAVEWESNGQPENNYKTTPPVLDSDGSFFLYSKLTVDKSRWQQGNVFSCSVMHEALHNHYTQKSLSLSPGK

[3] = target: T3, human VLA4-Fc (alpha4-Fc/beta1-Fc heterodimer) (human); experiment: SPR (BIACORE) as in Example 12, polypeptide purified from E. coli as analyte on captured VLA4-Fc; the black bar is broken and the value is written over it (Example 20)
T3 construct: Soluble heterodimer from CHO cells, Protein A purified; also called VLA-Fc
T3 sequence (chain, as listed by the source limits assumed, form in doubt, chain 1 of 2): as the sequence (chain, as listed by the source limits assumed, chain 1 of 2) above
T3 sequence (chain, as listed by the source limits assumed, form in doubt, chain 2 of 2): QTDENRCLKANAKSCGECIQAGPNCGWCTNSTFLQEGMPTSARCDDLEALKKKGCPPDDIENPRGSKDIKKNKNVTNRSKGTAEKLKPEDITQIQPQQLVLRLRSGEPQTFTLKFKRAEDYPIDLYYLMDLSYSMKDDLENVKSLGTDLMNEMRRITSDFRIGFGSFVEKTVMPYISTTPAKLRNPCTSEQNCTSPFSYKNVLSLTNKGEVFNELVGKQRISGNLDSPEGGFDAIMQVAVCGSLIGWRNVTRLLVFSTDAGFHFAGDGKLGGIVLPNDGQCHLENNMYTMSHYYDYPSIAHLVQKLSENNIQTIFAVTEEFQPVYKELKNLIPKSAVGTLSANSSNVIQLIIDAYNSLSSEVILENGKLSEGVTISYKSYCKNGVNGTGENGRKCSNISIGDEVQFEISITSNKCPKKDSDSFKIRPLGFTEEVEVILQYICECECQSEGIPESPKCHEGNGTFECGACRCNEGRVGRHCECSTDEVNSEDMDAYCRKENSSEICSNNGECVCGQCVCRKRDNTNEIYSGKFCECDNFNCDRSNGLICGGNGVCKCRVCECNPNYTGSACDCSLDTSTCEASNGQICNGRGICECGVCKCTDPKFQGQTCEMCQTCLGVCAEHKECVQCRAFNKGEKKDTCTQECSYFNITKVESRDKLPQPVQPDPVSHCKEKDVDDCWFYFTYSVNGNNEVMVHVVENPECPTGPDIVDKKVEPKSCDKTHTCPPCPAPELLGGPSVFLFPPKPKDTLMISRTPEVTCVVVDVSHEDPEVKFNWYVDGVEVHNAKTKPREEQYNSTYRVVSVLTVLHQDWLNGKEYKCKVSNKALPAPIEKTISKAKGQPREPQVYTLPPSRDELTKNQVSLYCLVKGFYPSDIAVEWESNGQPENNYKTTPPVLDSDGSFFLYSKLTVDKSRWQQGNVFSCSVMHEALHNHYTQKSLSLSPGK

[4] = target: T2, human LPAM-1-Fc (alpha4-Fc/beta7-Fc …); experiment: ELISA, LPAM-1-Fc coated, 1 mM MnCl2; from EC50 values
Experimental: The relative binding affinities of various 2D-VCAM variant proteins to immobilized LPAM-1-Fc (α4-Fc/β-7-Fc) heterodimer, relative to a control protein (e.g., Q38L-2D-VCAM-1 or human 2D-VCAM-1), were determined using a solid-phase ELISA assay. MAXISORP™ ELISA plates (NUNC) were coated overnight at 4° C. with 50 ul LPAM-1-Fc heterodimer (2 ug/ml in TBS-M, TBS (25 mM TRIS-HCl pH 7.5, 150 mM NaCl with 1 mM MnCl2), washed with TBS-T (TBS with 0.05% Tween-20), blocked with 200 ul 3% milk in TBS-M for 1 hr at room temperature, and washed again with TBS-T. A four-fold dilution series of the purified 2D-VCAM-1 variants to he assayed was made in COSTAR U-bottom plates in TBS-TMC (TBS with 0.05% Tween-20, 1 mM MnCl2 and 1% casein; Sigma) with a starting concentration of 8.2 uM (200 ug/ml). The dilution, series were transferred into the ELISA plate which was incubated at room temperature for 2 h and subsequently washed with TBS-T. Bound 2D-VCAM-1 protein was detected by incubation with 0.5 ug/ml of biotinylated anti-human VCAM antibody (R&D Systems, Catalog No. BAF809) in TBS-TMC for 1 h at room temperature followed by a TBS-T wash and subsequent incubation with 1:2000 dilution of streptavidin-HRP (BD Biosciences, Catalog No. 554066) in TBS-TMC for 30 min at room temperature. […] Typical development times ranged from 5-15 min and development was stopped by addition of 50 ul 2M H₂SO₄ (EM, Catalog No. SX1244-75). […] Fold-improvement in binding was calculated relative to a control protein (Q38L-2D-VCAM-1) assayed on the same plate.

[5] = target: T3, human VLA4-Fc (alpha4-Fc/beta1-Fc …); experiment: ELISA, VLA4-Fc coated, 1 mM MnCl2; from EC50 values
Experimental: The relative binding affinities of various 2D-VCAM-1 variants to immobilized VLA4-Fc (α4-β1-Fc) heterodimer, relative to a control protein (e.g., Q38L-2D-VCAM-1 or to human 2D-VCAM-1), were deter using a solid-phase ELISA assay. MAXISORP™ ELISA plates (NUNC) were coated overnight at 4° C. with 50 ul VLA4-Fc heterodimer, 2 ug/ml in TBS-M (TBS (25 mM Tris-HCl pH 7.5, 150 mM NaCl) with 1 mM MnCl2), washed with TBS-T (TBS with 0.05% TWEEN-20), blocked with 200 ul 3% milk in TBS-M for 1 h at room temperature, and washed again with TBS-T. A four-fold dilution series of the purified 2D-VCAM variants to be assayed was made in COSTAR U-bottom plates in TBS-TMC (TBS with 0.05% Tween-20, 1 mM MnCl2, and 1% casein; Sigma) with a starting concentration of 8.2 uM (200 ug/ml). The dilution series was transferred into the ELISA plate which was incubated at room temperature for 2 h and subsequently washed with TBS-T. Bound 2D-VCAM protein was detected by incubation with 0.5 ug/ml of biotinylated anti-human VCAM antibody (R&D Systems, Catalog No. BAF809) in TBS-TMC for 1 h at room temperature followed by a TBS-MT (TBS plus 1 mM MnCl2 and 0.02% TWEEN-20) wash and subsequent incubation with 1:2000 dilution of streptavidin-HRP (BD Biosciences, Catalog No. 554066) in TBS-TMC for 30 min at room temperature. […] Typical development times ranged from […] and development was stopped by addition of 50 ul 2M H₂SO₄ (EM, Catalog No. SX1244-75). […] Fold-improvement in binding was calculated relative to a control protein (e.g., Q38L-2D-VCAM-1 or human 2D-VCAM-1) assayed on the same plate.

[6] = target: T3, human VLA4-Fc (alpha4-Fc/beta1-Fc …); experiment: SPR (BIACORE), VLA4-Fc captured by anti-human IgG, 1 mM MnCl2, 1:1 Langmuir
Experimental: (§1) The kinetic 2D-VCAM-1 assay measures binding kinetics of a dimeric ligand (e.g., VLA-Fc fusion protein or LPAM-1-Fc fusion protein) coated to sensor chips and monomeric analyte (e.g., 2D-VCAM-1 variant polypeptides) in the mobile phase. Goat anti-human IgG antibody (Jackson ImmunoResearch, Catalog No. 105-005-098) was immobilized on CM-5 sensor chips (GE Healthcare, Catalog No. BR-1000-14) according to the manufacturer's protocol. Antibody was diluted to 30 μg/ml in immobilization buffer (10 mM sodium acetate, pH 5.0 (GE Healthcare, Catalog No. BR-1003-51)). […] Un-reacted sites were quenched with 35 μl of 1 M ethanolamine-HCl pH 8.5 (GE Healthcare, Catalog No. BR-1000-50). This procedure typically yielded 15,000 response units (RU) of coupled antibody. VLA4-Fc or LPAM-1-Fc, prepared as described in Examples 3 and 4, respectively, were bound to antibody-coated sensor chips by injection of 20 μl of ligand solution (20 μg/ml protein in HBS-P-Mn buffer at a flow rate of 10 μl/min). Ligand capture levels were typically 200-300 RU. 2D-VCAM-1 variant polypeptides were diluted in HBS-P-Mn and flowed over ligand-coated sensor chips for 2 min at 30 μl/min, followed by 5 min incubation with in HBS-P-Mn containing no protein at the same flow rate. For 2D-VCAM-1 variant polypeptides having very slow dissociation rates from VLA4-Fc or LPAM-1-Fc, kinetic assays were also conducted using longer dissociation times (e.g., 20 min). Rmax signal levels for 2D-VCAM-1 variant polypeptides ranged from approximately 5-25 RU. Regeneration between cycles was performed by 200 sec incubation with 10 mM glycine buffer (pH 1.7) at 50 μl/min. New chips were subjected to 4-5 cycles of capture/binding/regeneration prior to use in actual experiments. Data from a reference cell containing goat anti-human IgG capture antibody alone was subtracted from data obtained from flow cells containing captured VLA4-Fc or LPAM-1-Fc. Typically, 8 dilutions of 2D-VCAM-1 variant polypeptides ranging from 150 nM to 0.069 nM were analyzed against a blank reference (HBS-P-Mn buffer alone).

[7] = target: T2, human LPAM-1-Fc (alpha4-Fc/beta7-Fc …); experiment: SPR (BIACORE), LPAM-1-Fc captured by anti-human IgG, 1 mM MnCl2, 1:1 Langmuir
Experimental: as §1

- binding result [1]: binds
B1: recombinant human 7D-VCAM-1 (ligand)
chain: FKIETTPESRYLAQIGDSVSLTCSTTGCESPFFSWRTQIDSPLNGKVTNEGTTSTLTMNPVSFGNEHSYLCTATCESRKLEKGIQVEIYSFPKDPEIHLSGPLEAGKPITVKCSVADVYPFDRLEIDLLKGDHLMKSQEFLEDADRKSLETKSLEVTFTPVIEDIGKVLVCRAKLHIDEMDSVPTVRQAVKELQVYISPKNTVISVNPSTKLQEGGSVTMTCSSEGLPAPEIFWSKKLDNGNLQHLSGNATLTLIAMRMEDSGIYVCEGVNLIGKNRKEVELIVQEKPFTVEISPGPRIAAQIGDSVMLTCSVMGCESPSFSWRTQIDSPLSGKVRSEGTNSTLTLSPVSFENEHSYLCTVTCGHKKLEKGIQVELYSFPRDPEIEMSGGLVNGSSVTVSCKVPSVYPLDRLEIELLKGETILENIEFLEDTDMKSLENKSLEMTFIPTIEDTGKALVCQAKLHIDDMEFEPKQRQSTQTLYVNVAPRDTTVLVSPSSILEEGSSVNMTCLSQGFPAPKILWSRQLPNGELQPLSENATLTLISTKMEDSGVYLCEGINQAGRSRKEVELIIQVTPKDIKLTAFPSESVKEGDTVIISCTCGNVPETWIILKKKAETGDTVLKSIDGAYTIRKAQLKDAGVYECESKNKVGSQLRSLTL
notes: Bought from R&D Systems; also called immobilized VCAM-1; 7 domain form of VCAM-1

- binding result [2]: binds
B2: R1R6R7 (ligand)
2D-VCAM-1 variant polypeptide: MFKIETTPESRYLAQIGDSVSLTCSTTGCESPFFFWRPLLDSPLNGKVTNEGTTSTLTMNPVSFGNEHSYLCTATCESRKLEKGIQVEIYSFPKDPEIHLSGPLEAGKPITVKCSVADVYPFDRLEIDLLKGDHLMKSQEFLEDADRKSLETKSLEVTFTPVIEDIGKVLVCRAKLHIDEMDSVPTVRQAVKELQVYISP
notes: also called 146R1R6R7

- binding result [2]: binds
B3: R6R7 (ligand)
2D-VCAM-1 variant polypeptide: B2 2D-VCAM-1 variant polypeptide with F33L
notes: also called 146R6R7

- binding result [2]: binds
B4: R3R7 (ligand)
2D-VCAM-1 variant polypeptide: B2 2D-VCAM-1 variant polypeptide with F33L, P38T, T75R
notes: also called 146R3R7

- binding result [2]: binds
- Kd [3]: 250 pM
B5: R3R5R7 (ligand)
2D-VCAM-1 variant polypeptide: B2 2D-VCAM-1 variant polypeptide with F33L, P38T, L40I, T75R
notes: also called 146R3R5R7

- binding result [2]: binds
B6: R5R7 (ligand)
2D-VCAM-1 variant polypeptide: B2 2D-VCAM-1 variant polypeptide with F33L, L40I, T75R
notes: also called 146R5R7

- fold improvement in binding relative to Q38L-2D-VCAM-1 [4]: 23 fold
- fold-improvement in binding relative to Q38L-2D-VCAM-1 [5]: 11 fold
- fold-improvement in binding relative to human 2D-VCAM-1 [5]: 88 fold
B7: 2D-VCAM-1 variant Clone 147 (ligand)
chain: FKIETTPESRYLAQIGDSVSLTCSTTGCESPSFYWRPLLDSPLNGKVTNEGTTSTLTMNPVSFGNEHSYLCTAACESRRLEKGIQVEIYSFPKDPEIHLSGPLEAGKPITVKCSVADVYPFDRLEIDLLKGDHLMKSQEFLEDADRKSLETKSLEVTFTPVIEDIGKVLVCRAKLHIDEMDSVPTVRQAVKELQVYISP
notes: not shown: His tag

- Kd [6]: 417 pM
- binding affinity for VLA4-Fc relative to human 2D-VCAM-1 [6]: 36 fold
- fold improvement in binding relative to Q38L-2D-VCAM-1 [4]: 5 fold
- Kd [7]: 31200 pM
- binding affinity for LPAM-1-Fc relative to human 2D-VCAM-1 [7]: 8 fold
- fold-improvement in binding relative to Q38L-2D-VCAM-1 [5]: 4 fold
- fold-improvement in binding relative to human 2D-VCAM-1 [5]: 32 fold
B8: 2D-VCAM-1 variant Clone 150 (ligand)
chain: B7 chain with S32L, Y34F, L38Q, S41A, A74R, R79S
notes: not shown: His tag of the E. coli construct
